Experimental data taken from the supplement of paper PMC7877785.
± gives the uncertainty stated by the source.

Assay: self-splicing fitness, log relative to wild type (ln ratio); higher = more splicing; Tetrahymena group I intron in knt gene, E. coli kanamycin selection, DiMSum; sequences stand for … in CUCUCU…GGAGGGAAAAGUUAUCAGGCAUGCACCUGGUAGCUAGUCUUUAAACCAAUAGAUUGCAUCGGUUUAAAAGGCAAGACCGUCAAAUUGCGGGAAAGGGGUCAACAGCCGUUCAGUACCAAGUCUCAGGGGAAACUUUGAGAUGGCCUUGCAAAGGGUAUGGUAAUAAGCUGACGGACAUGGUCCUAACCACGCAGCCAAGUCCUAAGUCAACAGAUCUUCUGUUGAUAUGGAUGCAGUUCACAGACUAAAUGUCGGUCGGGGAAGAUGUAUUCUUCUCAUAAGAUAUAGUCGGACCUCUCCUUAAUGGGAGCUAGCGGAUGAAGUGAUGCAACACUGGAGCCGCUGGGAACUAAUUUGUAUGCGAAAGUAUAUUGAUUAGUUUUGGAGUACUCGUGGUCG
In short: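 Pooled colonies went to amplicon sequencing on an Illumina HiSeq 2500 after six replicate transformations. The plates were LB agar with 100 μg/mL carbenicillin, 50 μM IPTG and 0.2% rhamnose, with or without 25 μg/mL kanamycin, incubated overnight at 37°C or 30°C. The E. coli BL21(DE3) library had all eight P1ex-region intron nucleotides randomised, the intron placed in the knt kanamycin-resistance gene on pET-22b(+). DiMSum fitness is the error-weighted combination of replicate fold changes, kanamycin against none, normalised to wild type.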

Sequence | self-splicing fitness (ln) (30 °C) | self-splicing fitness (ln) (37 °C)
ACGCAGCAAUAUUACGUCUU | -1.36 ± 0.065 | -1.27 ± 0.083
GCCGAGCAAUAUUACGCACU | -1.64 ± 0.11 | -0.365 ± 0.13
CAAUAGCAAUAUUACGAAUA | -2.97 ± 0.39 | -3.26 ± 0.32
GCGUAGCAAUAUUACGGAUG | -1.41 ± 0.16 | -1.98 ± 0.18
CGCCAGCAAUAUUACGAAGA | -2.64 ± 0.36 | -2.2 ± 0.24
UAACAGCAAUAUUACGAGGC | -3.62 ± 0.2 | -1.97 ± 0.18
CGGGAGCAAUAUUACGAGGA | -4.2 ± 0.39 | -2.53 ± 0.28
AAGUAGCAAUAUUACGACAA | -0.505 ± 0.073 | 0.0804 ± 0.084
ACUGAGCAAUAUUACGGGCA | -2.07 ± 0.14 | -1.08 ± 0.14
GCGAAGCAAUAUUACGUUAA | -1.65 ± 0.18 | -1.88 ± 0.23
CACUAGCAAUAUUACGCGAU | -2.63 ± 0.23 | -2.12 ± 0.28
CGCGAGCAAUAUUACGUUAC | -4.07 ± 0.28 | -1.78 ± 0.33
UAAGAGCAAUAUUACGUUGG | -2.87 ± 0.28 | 
GGAGAGCAAUAUUACGUGUG | -4.29 ± 0.34 | -3.29 ± 0.27
AGGGAGCAAUAUUACGACAG | -2.9 ± 0.13 | -2.62 ± 0.22
CGUUAGCAAUAUUACGUAAC |  | -2.3 ± 0.46
CAUAAGCAAUAUUACGGUUC | -3.7 ± 0.17 | -3.08 ± 0.19
GGUCAGCAAUAUUACGUAAA | 0.301 ± 0.14 | 0.672 ± 0.18
UGUCAGCAAUAUUACGUUUA | -0.825 ± 0.095 | -0.114 ± 0.089
ACUGAGCAAUAUUACGGACG | -2.2 ± 0.13 | -1.9 ± 0.2
UUUCAGCAAUAUUACGGGUG | -0.316 ± 0.074 | -0.441 ± 0.087
ACAGAGCAAUAUUACGCUUA | -2.01 ± 0.22 | -1.25 ± 0.16
GACCAGCAAUAUUACGCAUG | -1.2 ± 0.073 | -1.65 ± 0.09
AUUUAGCAAUAUUACGGUGC | -4.12 ± 0.46 | -1.55 ± 0.23
